Where two headings read alike, the source gives them in different places.
Tests used:
Test in all cases: FACS binding to EL4 cells
human CD160 on cells [1] = target: T1, human CD160 on cells (human, UniProt O95971 25-159)
T1 chain: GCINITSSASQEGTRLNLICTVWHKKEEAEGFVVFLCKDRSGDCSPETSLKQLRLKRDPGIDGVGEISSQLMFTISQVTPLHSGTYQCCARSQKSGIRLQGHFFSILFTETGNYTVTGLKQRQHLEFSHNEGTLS

[2] = target: T2, human BTLA, wild-type, on cells (human, UniProt Q7Z6A9 31-289)
human CD160 on cells [3] = target: T1, human CD160 on cells
[4] = target: T2, human BTLA, wild-type, on cells; remark: listed apart in the source

B1: human HVEM Fc (Fc fusion)
chain: LPSCKEDEYPVGSECCPKCSPGYRVKEACGELTGTVCEPCPPGTYIAHLNGLSKCLQCQMCDPAMGLRASRNCSRTENAVCGCSPGHFCIVQDGDHCAACRAYATSSPGQRVQKGGTESQDTLCQNCPPGTFSPNGTLEECQHQTKCSWLVTKAGAGTSSSHWV
EC50 (human CD160 on cells [1]): 5.1 µg/mL
EC50 [2]: 8.7 µg/mL
EC50 (human CD160 on cells [3]): 5.1 µg/mL
EC50 [4]: 8.7 µg/mL

Reference: US20210122788A1 (published 2021)
